B1: speckle-type POZ protein (SPOP) WT, residues 28-359 (domain or fragment)
chain: KVVKFSYMWTINNFSFCREEMGEVIKSSTFSSGANDKLKWCLRVNPKGLDEESKDYLSLYLLLVSCPKSEVRAKFKFSILNAKGEETKAMESQRAYRFVQGKDWGFKKFIRRDFLLDEANGLLPDDKLTLFCEVSVVQDSVNISGQNTMNMVKVPECRLADELGGLWENSRFTDCCLCVAGQEFQAHKAILAARSPVFSAMFEHEMEESKKNRVEINDVEPEVFKEMMCFIYTGKAPNLDKMADDLLAAADKYALERLKVMCEDALCSNLSVENAAEILILADLHSADQLKTQAVDFINYHASDVLETSGWKSMVVSHPHLVAEAYRSLASA
B2: SPOP R354H, residues 28-359 (domain or fragment)
chain: KVVKFSYMWTINNFSFCREEMGEVIKSSTFSSGANDKLKWCLRVNPKGLDEESKDYLSLYLLLVSCPKSEVRAKFKFSILNAKGEETKAMESQRAYRFVQGKDWGFKKFIRRDFLLDEANGLLPDDKLTLFCEVSVVQDSVNISGQNTMNMVKVPECRLADELGGLWENSRFTDCCLCVAGQEFQAHKAILAARSPVFSAMFEHEMEESKKNRVEINDVEPEVFKEMMCFIYTGKAPNLDKMADDLLAAADKYALERLKVMCEDALCSNLSVENAAEILILADLHSADQLKTQAVDFINYHASDVLETSGWKSMVVSHPHLVAEAYHSLASA

How the values were obtained:
[1] = biological target: the molecule itself; assay: composite-gradient multiangle light scattering
[2] = biological target: B1; assay: fluorescence polarisation
[3] = biological target: SPOP R221C, residues 28-359 (UniProt O43791 28-359, R221C); assay: fluorescence polarisation
[4] = biological target: B2; assay: fluorescence polarisation
[5] = biological target: SPOP mutBACK (Y353E), residues 28-359 (UniProt O43791 28-359, Y353E); assay: fluorescence polarisation

| Kd [2] [µM] | Kd [3] [µM] | Kd [4] [µM] | Kd [5] [µM] | Binder | Kd [1] [µM] |
| --- | --- | --- | --- | --- | --- |
|  |  |  |  | B1 | 2.7 |
| 1.2 | 3.2 | 3 |  | C-terminal intrinsically disordered region of DAXX (cDAXX), fluorescently labeled (domain or fragment, fluorescently labeled (fluorescently tagged cDAXX construct; the labeling methods give Rhodamine Red, N-terminal labeling, for cDAXX)) SPMSSLQISNEKNLEPGKQISRSSGEQQNKGRIVSPSLLSEEPLAPSSIDAESNGEQPEELTLEEESPVSQLFELEIEALPLDTPSSVETDISSSRKQSEEPFTTVLENGAGMVSSTSFNGGVSPHNWGDSGPPCKKSRKEKKQTGSGPLGNSYVERQRSVHEKNGKKICTLPSPPSPLASLAPVADSSTRVDSPSHGLVTSSLCIPSPARLSQTPHSQPPRPGTCKTSVATQCDPEEIIVLSDSD |  |
|  |  |  |  | B2 | 26.9 |
| 9.8 | 5.9 | 5.1 | 4.3 | ENLACDEVTSTTSSSST (HELM PEPTIDE1{[O=C1OC2(c3ccc(O)cc3Oc3cc(O)ccc32)c2ccc(C(=O)[*:2])cc21].E.N.L.A.C.D.E.V.T.S.T.T.S.S.S.S.T.[am]}$$$$V2.0; SMILES CC(C)C[C@H](NC(=O)[C@H](CC(N)=O)NC(=O)[C@H](CCC(=O)O)NC(=O)c1ccc2c(c1)C(=O)OC21c2ccc(O)cc2Oc2cc(O)ccc21)C(=O)N[C@@H](C)C(=O)N[C@@H](CS)C(=O)N[C@@H](CC(=O)O)C(=O)N[C@@H](CCC(=O)O)C(=O)N[C@H](C(=O)N[C@H](C(=O)N[C@@H](CO)C(=O)N[C@H](C(=O)N[C@H](C(=O)N[C@@H](CO)C(=O)N[C@@H](CO)C(=O)N[C@@H](CO)C(=O)N[C@@H](CO)C(=O)N[C@H](C(N)=O)[C@@H](C)O)[C@@H](C)O)[C@@H](C)O)[C@@H](C)O)C(C)C) [fPuc peptide (fluorescently labeled SPOP-binding motif from the substrate Puckered)] |  |
